{"source": "patent US20100266695A1", "about": "(University of California, published 2010)", "binders": {"B1": {"name": "DNA/PEI-Au-Cap-RGD-ASA polyplex: DNA/poly(ethylene imine) polyplex covalently modified with Au-Cap-RGD-ASA nanoparticles (other)", "peptide 1": "Ac-CCVVVTGRGDSPSSK-OH", "peptide 2": "CCVVVT", "modifications": "also: peptides on gold nanoparticle via thiol/gold, azidosalicylic acid added, residue not given here, crosslinked to PEI, bound to DNA/PEI polyplex"}, "B2": {"name": "Au-Cap-RGD nanoparticles (RGD nanoclusters): 5 nm gold nanoparticles modified with a mixture of Cap and Cap-RGD peptides (peptide)", "peptide 1": "Ac-CCVVVTGRGDSPSSK-OH", "peptide 2": "CCVVVT-OH", "modifications": "also: peptides attached to 5 nm gold nanoparticle via thiol/gold, mixture of Cap and Cap-RGD"}}, "molecular_target": "αvβ3 integrin on HeLa cells (human, UniProt P06756 31-1048; P05106 27-788)", "sequence (P06756 31-1048, chain 1 of 2)": "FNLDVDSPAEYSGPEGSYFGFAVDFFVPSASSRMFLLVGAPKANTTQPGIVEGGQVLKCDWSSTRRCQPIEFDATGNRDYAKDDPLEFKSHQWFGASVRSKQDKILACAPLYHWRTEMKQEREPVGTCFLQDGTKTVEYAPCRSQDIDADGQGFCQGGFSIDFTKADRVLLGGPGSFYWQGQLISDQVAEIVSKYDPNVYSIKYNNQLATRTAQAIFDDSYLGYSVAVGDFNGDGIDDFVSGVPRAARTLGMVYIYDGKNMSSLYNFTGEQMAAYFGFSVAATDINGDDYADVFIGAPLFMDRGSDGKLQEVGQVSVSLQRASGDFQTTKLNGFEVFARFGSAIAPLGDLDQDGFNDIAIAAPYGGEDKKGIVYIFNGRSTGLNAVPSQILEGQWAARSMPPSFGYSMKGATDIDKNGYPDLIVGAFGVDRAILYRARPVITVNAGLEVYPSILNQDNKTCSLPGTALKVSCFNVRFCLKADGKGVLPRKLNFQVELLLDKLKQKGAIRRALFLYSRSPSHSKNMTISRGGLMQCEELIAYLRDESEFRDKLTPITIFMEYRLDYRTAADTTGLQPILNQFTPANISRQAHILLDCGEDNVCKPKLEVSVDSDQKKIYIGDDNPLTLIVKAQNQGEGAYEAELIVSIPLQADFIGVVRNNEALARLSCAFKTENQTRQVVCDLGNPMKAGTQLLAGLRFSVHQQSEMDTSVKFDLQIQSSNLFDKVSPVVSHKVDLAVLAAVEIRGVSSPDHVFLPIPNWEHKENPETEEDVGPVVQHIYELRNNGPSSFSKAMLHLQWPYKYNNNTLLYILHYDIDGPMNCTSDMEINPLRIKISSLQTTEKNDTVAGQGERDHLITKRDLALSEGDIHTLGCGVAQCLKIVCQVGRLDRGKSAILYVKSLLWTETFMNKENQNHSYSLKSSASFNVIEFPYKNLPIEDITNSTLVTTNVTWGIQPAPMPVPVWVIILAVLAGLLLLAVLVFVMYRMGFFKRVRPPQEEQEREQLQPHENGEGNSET", "sequence (P05106 27-788, chain 2 of 2)": "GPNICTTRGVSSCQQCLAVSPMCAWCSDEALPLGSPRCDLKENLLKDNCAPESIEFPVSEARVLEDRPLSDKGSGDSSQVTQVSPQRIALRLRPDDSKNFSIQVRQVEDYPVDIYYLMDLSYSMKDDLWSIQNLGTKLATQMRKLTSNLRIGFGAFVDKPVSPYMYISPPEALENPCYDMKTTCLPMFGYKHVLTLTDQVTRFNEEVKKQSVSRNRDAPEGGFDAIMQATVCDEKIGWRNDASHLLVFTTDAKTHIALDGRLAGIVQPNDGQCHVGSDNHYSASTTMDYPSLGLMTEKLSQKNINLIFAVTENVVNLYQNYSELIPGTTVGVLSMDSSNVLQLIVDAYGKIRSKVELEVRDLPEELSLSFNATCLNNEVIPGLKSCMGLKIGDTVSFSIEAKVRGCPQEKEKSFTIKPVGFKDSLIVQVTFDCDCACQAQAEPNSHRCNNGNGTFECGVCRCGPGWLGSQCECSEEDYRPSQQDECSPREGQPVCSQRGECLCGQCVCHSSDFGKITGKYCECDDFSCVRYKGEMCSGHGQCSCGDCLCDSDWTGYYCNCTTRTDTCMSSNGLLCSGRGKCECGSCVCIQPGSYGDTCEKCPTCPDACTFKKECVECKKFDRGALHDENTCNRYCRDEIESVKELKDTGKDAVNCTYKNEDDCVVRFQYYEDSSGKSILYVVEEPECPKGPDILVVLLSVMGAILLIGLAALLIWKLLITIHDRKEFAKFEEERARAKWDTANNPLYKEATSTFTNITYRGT", "assay": "cell-based or functional assay", "note": "Where no end group is shown, it is not given here.", "data": [{"binder": "B1", "values": [{"measurement": "Integrin Sensitivity Factor (ISF), ratio of the transfection level achieved with high and low αvβ3 density cells", "value": 60}, {"measurement": "luciferase expression in low αvβ3 density HeLa cells, against unmodified polyplexes", "value": 5.4, "unit": "fold"}, {"measurement": "transfection efficiency in high αvβ3 density HeLa cells, against unmodified polyplexes", "value": 35, "unit": "fold"}, {"measurement": "transfection efficiency, HeLahigh against HeLalow", "value": 7, "unit": "fold"}]}, {"binder": "B2", "values": [{"measurement": "IC50 level of cell adhesion inhibition, as equivalent RGD peptide (anti-adhesion assay, HeLa cells on vitronectin)", "value": 0.1, "unit": "µM"}]}, {"binder": "Ac-GCGYGRGDSPSSK-NH2", "note": "[free RGD peptide (Ac-GCGYGRGDSPSSK-NH2)]", "values": [{"measurement": "IC50 concentration at which 50% of cell adhesion is inhibited (anti-adhesion assay, HeLa cells on vitronectin)", "value": "~100", "unit": "µM"}]}]}
